Laboratory results as given in PMC5806685.

Target: EYFP-RyR1 (full-length rabbit type 1 ryanodine receptor), expressed in RyR1/RyR3 double-null (R1R3) myotubes (rabbit) (UniProt P11716)
Assay: FRET or BRET

Chain of EYFP-RyR1 (full-length rabbit type 1 ryanodine receptor), expressed in RyR1/RyR3 double-null (R1R3) myotubes, P11716 1-5037 (natural protein) (P11716 whole entry): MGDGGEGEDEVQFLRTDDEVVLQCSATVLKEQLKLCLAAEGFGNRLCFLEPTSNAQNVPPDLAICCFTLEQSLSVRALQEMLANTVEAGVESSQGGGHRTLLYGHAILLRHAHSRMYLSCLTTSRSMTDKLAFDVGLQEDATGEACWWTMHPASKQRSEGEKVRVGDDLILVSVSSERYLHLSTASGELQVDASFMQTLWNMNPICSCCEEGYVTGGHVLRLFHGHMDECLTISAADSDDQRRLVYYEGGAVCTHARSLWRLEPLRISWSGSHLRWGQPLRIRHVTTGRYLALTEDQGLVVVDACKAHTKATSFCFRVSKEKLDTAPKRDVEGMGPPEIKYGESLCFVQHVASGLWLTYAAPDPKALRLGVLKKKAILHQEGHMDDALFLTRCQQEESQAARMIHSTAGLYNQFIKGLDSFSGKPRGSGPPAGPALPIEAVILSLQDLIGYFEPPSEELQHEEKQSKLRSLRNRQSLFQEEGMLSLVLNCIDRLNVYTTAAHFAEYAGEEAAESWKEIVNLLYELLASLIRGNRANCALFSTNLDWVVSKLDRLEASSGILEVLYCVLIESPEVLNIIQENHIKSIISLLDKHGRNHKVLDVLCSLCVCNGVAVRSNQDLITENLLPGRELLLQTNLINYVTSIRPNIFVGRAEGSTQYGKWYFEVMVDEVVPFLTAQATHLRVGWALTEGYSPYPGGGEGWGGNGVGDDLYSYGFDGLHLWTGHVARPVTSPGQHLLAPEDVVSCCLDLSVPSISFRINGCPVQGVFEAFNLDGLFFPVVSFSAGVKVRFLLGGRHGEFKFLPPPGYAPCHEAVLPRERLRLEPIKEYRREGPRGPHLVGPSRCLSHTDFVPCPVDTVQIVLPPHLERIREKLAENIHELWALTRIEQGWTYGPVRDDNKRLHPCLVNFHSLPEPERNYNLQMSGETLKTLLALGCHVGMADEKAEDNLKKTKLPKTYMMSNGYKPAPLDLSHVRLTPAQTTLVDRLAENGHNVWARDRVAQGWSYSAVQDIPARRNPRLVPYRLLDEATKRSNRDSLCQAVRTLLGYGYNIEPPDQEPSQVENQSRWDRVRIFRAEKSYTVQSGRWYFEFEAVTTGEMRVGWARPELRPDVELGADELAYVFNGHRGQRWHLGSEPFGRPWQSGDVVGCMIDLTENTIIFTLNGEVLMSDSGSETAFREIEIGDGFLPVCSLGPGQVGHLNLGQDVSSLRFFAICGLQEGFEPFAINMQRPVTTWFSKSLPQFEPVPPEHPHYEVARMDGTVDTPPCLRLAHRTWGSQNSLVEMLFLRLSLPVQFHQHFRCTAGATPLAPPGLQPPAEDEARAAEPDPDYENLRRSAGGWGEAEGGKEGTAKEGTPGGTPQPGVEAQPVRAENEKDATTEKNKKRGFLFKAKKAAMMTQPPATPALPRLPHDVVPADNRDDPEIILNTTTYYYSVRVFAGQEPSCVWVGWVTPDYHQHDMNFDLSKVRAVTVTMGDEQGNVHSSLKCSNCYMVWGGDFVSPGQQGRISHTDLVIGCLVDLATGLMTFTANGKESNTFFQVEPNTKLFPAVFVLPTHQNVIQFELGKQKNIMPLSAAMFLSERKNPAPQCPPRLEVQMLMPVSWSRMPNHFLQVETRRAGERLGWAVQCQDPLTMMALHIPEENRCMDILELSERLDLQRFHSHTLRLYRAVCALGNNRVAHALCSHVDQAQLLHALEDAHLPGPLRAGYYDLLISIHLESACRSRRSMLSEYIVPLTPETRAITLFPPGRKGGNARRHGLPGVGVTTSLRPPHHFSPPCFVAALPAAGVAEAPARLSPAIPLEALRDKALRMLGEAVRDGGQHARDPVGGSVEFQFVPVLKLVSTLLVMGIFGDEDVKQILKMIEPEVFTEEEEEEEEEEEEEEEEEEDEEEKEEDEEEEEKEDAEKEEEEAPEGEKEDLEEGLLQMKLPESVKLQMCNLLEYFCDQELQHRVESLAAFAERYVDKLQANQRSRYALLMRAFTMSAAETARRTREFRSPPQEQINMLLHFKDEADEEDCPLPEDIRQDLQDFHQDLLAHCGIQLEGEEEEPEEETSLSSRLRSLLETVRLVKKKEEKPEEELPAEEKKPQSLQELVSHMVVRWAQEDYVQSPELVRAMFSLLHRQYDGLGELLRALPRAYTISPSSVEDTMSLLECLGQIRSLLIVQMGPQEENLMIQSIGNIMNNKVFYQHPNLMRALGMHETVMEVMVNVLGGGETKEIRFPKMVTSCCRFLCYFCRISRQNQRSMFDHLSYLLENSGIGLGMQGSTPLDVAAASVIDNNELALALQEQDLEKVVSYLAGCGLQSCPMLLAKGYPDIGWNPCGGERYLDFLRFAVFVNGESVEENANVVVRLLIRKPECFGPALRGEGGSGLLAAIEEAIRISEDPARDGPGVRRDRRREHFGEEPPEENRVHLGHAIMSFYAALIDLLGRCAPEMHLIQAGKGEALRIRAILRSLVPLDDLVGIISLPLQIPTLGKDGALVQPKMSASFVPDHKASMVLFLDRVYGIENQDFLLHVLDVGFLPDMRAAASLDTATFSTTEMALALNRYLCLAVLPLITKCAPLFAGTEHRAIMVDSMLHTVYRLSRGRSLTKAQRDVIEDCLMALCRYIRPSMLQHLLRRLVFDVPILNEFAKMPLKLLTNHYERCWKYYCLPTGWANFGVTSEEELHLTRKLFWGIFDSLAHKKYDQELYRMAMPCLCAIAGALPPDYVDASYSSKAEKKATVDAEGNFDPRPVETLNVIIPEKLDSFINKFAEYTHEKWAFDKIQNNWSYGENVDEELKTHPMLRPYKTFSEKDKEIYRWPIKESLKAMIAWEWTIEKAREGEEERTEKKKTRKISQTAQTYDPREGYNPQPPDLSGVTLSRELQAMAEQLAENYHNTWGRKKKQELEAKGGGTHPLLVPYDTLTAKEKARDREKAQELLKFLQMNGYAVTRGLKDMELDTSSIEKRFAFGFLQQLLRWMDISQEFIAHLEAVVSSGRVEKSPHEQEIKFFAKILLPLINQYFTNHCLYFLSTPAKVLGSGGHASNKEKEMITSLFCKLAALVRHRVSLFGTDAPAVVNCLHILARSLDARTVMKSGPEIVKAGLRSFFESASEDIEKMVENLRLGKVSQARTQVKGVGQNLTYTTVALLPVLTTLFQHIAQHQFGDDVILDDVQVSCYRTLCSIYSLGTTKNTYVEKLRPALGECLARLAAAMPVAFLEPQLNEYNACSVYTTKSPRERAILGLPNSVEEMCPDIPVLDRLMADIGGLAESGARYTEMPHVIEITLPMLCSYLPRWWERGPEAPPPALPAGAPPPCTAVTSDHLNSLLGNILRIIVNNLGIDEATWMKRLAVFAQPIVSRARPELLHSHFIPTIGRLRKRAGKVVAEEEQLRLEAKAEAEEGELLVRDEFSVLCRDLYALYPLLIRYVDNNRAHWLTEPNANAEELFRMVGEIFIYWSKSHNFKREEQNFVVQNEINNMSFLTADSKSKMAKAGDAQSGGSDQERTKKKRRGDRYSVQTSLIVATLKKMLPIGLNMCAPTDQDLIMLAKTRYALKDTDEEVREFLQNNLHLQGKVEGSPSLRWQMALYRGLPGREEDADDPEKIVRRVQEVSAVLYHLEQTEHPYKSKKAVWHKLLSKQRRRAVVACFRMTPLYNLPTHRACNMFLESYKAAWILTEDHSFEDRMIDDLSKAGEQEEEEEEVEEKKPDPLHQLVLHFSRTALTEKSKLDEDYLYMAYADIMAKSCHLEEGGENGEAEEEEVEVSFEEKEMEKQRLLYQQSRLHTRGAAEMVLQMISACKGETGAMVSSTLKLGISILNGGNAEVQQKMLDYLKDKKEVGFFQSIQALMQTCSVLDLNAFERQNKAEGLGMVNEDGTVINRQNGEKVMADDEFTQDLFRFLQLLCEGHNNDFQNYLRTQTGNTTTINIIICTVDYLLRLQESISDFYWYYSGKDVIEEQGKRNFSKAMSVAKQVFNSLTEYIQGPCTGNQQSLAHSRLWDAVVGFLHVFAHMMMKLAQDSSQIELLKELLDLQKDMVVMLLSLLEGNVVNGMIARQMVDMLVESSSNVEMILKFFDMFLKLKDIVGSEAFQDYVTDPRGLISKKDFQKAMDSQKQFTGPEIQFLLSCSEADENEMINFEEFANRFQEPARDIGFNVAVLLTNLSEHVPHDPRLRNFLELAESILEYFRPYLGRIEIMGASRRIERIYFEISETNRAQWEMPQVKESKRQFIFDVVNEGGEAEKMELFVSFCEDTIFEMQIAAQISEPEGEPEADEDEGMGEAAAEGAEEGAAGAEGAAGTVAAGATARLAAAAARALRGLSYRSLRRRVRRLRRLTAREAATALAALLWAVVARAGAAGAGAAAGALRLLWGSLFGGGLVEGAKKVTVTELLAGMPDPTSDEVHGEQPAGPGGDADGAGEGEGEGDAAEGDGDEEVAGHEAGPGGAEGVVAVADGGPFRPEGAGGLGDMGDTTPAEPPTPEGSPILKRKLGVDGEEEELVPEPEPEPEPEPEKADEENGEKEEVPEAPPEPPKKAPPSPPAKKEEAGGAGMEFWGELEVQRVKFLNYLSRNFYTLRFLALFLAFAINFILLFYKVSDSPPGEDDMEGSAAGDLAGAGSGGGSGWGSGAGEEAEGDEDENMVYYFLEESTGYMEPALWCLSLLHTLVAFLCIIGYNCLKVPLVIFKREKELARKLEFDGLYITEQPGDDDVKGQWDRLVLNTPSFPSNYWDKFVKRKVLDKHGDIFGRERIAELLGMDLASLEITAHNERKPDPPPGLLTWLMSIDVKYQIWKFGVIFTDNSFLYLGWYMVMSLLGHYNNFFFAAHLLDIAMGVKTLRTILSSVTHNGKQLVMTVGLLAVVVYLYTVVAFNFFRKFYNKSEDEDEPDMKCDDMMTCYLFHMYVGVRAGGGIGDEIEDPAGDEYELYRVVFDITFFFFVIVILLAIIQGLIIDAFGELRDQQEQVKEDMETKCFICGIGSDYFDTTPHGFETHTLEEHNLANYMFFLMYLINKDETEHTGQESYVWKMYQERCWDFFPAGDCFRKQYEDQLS

- FRET efficiency: 8.6%
Substance: EYFP-RyR1 (full-length rabbit type 1 ryanodine receptor), expressed in RyR1/RyR3 double-null (R1R3) myotubes, P11716 1-5037 (natural protein)
